Consider 5 molecules from patent US20140086913A1 (Gilead, published 2014).

Assay [1] addresses DDR1 with a ProLink Tag (PK) in engineered U20S cells (DiscoveRx), Q08345. The assay can be described thus: cell-based or functional assay.
The target of assay [2] is human DDR1 (isoform B) stably expressed on HEK293 cells (human) (UniProt Q08345). The assay can be described thus: flow cytometry, HEK293/hDDR1. For orientation: Flow cytometry measures light scatter and fluorescence of single cells or particles in a stream.
Assay [3] concerns the target DDR1 endogenously expressed on human cancer cell lines (T47D, HCT-116, A431) (human) (UniProt Q08345). The assay can be described thus: flow cytometry, T47D cells.
The target is the same in assay [4]. The assay can be described thus: flow cytometry, HCT116 cells.
The target is the same in assay [5]. The assay can be described thus: cell-based or functional assay.
The target in assay [6] is T1, DDR1ECD-Fc (R&D Systems, Catalog #2396-DR) (human, UniProt Q08345 21-416).
T1 construct: range 21-416; construct as described for the bought immunogen; also called human ECD-DDR1-Fc; Fc-ECD-DR1; not shown: human IgG1, Pro100-Lys330
The assay can be described thus: ELISA, coated antigen, apparent KD. The protocol: (§1) In this study, ELISA was used to determine the affinity of murine anti-DDR1 monoclonal antibodies to the extracellular domain (ECD) of either human or murine DDR1. A 96-well MaxiSorb ELISA plates (Nunc) were coated with 2 μg/mL of one of three purified recombinant tagged proteins: human ECD-DDR1-His protein, human ECD-DDR1-Fc, or mouse ECD-DDR1-Fc overnight at 4° C. The next day, the plates were blocked with 5% bovine serum albumin (BSA, Jackson Immunoresearch) prior to the addition of serially diluted anti-DDR1 monoclonal antibodies. Antibodies were incubated for 1 hr at room temperature. The binding of antibody to the antigen was detected by incubating samples with anti-mouse IgG-HRP (horse radish peroxidase) secondary detection antibody (Jackson Immunoresearch) for 1 hr. After a washing step, 3,3′,5,5″-tetramethylbenzidine (TMB) reagent was added for HRP to produce a colorimetric signal. The reaction was stopped by addition of 1M hydrochloric acid after 2 minutes and measured for absorbance (optical density, OD) at 450λ on a Molecular Devices plate reader. The OD values were plotted against antibody concentration and fitted using a using 4-parameter logistic equation in SoftMax software (Molecular Devices). The apparent affinity constant (KD) was taken from the C-parameter of the equation (y=(A−D)/(1+(x/C)̂B)+D). The apparent affinity constants were summarized (in some cases shown as average values) in Table 10 below. Lower value indicates higher binding affinity of the antibody to the antigen.
On the technique in general: ELISA stands for enzyme-linked immunosorbent assay.

The target in assay [7] is T2, human ECD-DDR1-His protein (human, UniProt Q08345 21-416).
T2 construct: also called huDDR1-ECD-His; DDR1ECD-6Xhis; not shown: His tag
The assay can be described thus: ELISA, coated antigen, apparent KD. The protocol: as §1

Assay [8] concerns the target T3, human DDR2 stably expressed on HEK293 cells (human, UniProt Q16832 22-855).
T3 construct: whole, on cells; also called hDDR2
T3 sequence (looked up): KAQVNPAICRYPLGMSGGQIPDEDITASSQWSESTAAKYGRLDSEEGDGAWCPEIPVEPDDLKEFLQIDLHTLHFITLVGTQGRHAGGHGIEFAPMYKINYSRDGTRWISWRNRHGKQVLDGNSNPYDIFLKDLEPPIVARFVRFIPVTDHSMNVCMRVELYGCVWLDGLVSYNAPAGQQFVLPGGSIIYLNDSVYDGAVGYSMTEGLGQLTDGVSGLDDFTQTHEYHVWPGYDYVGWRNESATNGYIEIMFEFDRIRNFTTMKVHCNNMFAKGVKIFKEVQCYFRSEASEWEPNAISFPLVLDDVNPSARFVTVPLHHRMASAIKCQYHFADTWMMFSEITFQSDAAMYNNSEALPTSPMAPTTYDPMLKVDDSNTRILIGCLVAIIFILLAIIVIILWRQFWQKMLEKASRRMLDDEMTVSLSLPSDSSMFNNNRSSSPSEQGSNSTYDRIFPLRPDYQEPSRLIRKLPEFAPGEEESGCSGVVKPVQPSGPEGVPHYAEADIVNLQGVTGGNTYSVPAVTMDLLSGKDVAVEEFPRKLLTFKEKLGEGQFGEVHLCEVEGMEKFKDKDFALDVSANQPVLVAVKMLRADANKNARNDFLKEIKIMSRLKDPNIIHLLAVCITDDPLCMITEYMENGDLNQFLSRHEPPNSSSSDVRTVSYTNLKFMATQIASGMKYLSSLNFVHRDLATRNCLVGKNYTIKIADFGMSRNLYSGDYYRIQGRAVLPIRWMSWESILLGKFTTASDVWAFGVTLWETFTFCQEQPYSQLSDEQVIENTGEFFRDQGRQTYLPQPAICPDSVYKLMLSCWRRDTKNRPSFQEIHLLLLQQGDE
The assay can be described thus: flow cytometry, HEK293/hDDR2. The protocol: Additional monoclonal antibodies were obtained from individual hybridomas in Example 1 and were characterized for their properties.
Cells were cultured in DMEM with 10% FBS and 0.8 mg/mL hygromycin. When cells reached 60-80% confluence, they were centrifuged at 1,200 rpm for 5 minutes, suspended in FACS buffer (1×PBS, 1% BSA), and aliquoted into a 96-well plate at 1×10⁶ cells per well. The anti-DDR1 monoclonal antibodies or appropriate isotype controls at 2 μg per 1×10⁶ cells were added and incubated at 4° C. for 1 hr. The cells were washed twice with FACS buffer then stained with the anti-IgG-PE secondary antibody at 10 μL per well at 4° C. for 1 hr. The cells were washed again and measured for the MFI values or signals using flow cytometry (LSR Fortessa instrument, BD Biosciences). Background MFI signals from vector-only cells (i.e. no DDR1 or DDR2 expression) was subtracted from those of the cells treated with antibodies. Higher MFI values or signals indicated increased binding or specificity of the anti-DDR1 antibodies to the DDR1 on the cell surface.

The next assay deals with T4, mouse ECD-DDR1-Fc (mouse; human, UniProt Q03146 22-414).
T4 construct: also called mouse DDR1-ECD; wild-type mouse DDR1-ECD; not shown: human IgG1 Fc of the vector pFuse-hIgG1-Fc1 (Invivogen)
T4 sequence: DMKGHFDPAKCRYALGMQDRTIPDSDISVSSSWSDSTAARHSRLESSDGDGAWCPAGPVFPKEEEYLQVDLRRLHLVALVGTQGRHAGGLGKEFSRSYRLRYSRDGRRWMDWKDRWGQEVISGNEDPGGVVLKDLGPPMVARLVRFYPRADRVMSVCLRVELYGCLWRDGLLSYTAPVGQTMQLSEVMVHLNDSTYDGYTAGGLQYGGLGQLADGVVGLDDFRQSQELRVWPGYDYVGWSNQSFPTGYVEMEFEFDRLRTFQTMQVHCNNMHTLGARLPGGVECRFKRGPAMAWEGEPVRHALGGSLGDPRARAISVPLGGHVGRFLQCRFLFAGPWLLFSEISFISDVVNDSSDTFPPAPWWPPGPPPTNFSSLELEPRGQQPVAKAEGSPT
The assay can be described thus: ELISA, coated antigen. The protocol: as §1

In assay [9] the target is DDR1 endogenously expressed on human cancer cell lines (T47D, HCT-116, A431) (human) (UniProt Q08345). The assay can be described thus: cell-based or functional assay. The source holds these as a separate data set.
The target of assay [10] is human DDR1 (isoform B) stably expressed on HEK293 cells (human) (UniProt Q08345). The assay can be described thus: flow cytometry, HEK293/human DDR1, normalized to empty-vector cells.
For assay [11], the target named is T1, DDR1ECD-Fc (R&D Systems, Catalog …). The assay can be described thus: ELISA.

Like-named read-outs stand apart in the source and are kept apart here.

Sequence of human DDR1 (isoform B) stably expressed on HEK293 cells (human) (Q08345 19-913): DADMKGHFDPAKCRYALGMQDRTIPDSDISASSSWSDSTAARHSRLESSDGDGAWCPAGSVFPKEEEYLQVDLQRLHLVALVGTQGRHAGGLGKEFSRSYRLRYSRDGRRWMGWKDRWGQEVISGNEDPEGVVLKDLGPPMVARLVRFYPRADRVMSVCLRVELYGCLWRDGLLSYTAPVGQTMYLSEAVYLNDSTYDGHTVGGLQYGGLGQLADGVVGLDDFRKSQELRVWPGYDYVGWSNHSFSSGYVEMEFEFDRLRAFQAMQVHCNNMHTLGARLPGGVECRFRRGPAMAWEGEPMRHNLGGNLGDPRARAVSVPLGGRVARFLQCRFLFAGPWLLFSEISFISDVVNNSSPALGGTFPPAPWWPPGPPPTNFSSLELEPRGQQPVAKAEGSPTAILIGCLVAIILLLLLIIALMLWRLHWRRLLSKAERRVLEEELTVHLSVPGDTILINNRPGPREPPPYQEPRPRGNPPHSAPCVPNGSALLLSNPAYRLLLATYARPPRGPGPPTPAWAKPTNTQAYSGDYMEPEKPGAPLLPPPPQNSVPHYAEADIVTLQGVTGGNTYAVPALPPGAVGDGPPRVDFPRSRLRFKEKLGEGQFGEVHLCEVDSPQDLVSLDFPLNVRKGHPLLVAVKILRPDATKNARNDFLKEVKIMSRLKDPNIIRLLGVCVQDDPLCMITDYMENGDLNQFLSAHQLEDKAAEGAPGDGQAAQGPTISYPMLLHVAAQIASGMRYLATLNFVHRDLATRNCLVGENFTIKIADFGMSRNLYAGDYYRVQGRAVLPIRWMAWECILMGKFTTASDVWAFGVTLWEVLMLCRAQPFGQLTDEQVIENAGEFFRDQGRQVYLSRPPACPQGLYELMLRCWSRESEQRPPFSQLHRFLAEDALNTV

B1: AB2029 (antibody, V domains shown)
VH: QVLLRQSGPGLVQPSQSLSITCTVSGFSLTTYGVHWVRQSPGKGLEWLGVIWSGGSTDYNAAFISRLTISKDNSKSQVFFKMNSLQANDTAIYYCARYYSGSSLYFAMDYWGQGTSVTVSS
VL: NIVMTQTPKFLLVSAGDTVTITCKASQSVSNDVAWYQQKPGQSPKLLIYYASNRYTGVPDRFTGSGFGTDFTFTISTVQTEDLAVYFCQQDYSSLTFGAGTKLELKR
notes: mouse hybridoma mAb
For B1, the Mean EC50, DDR1 Tyr513 phosphorylation assay (U20S) in [1] is 4.9 nM. Also, the MFI in assay [2] is 11700 MFI; in assay [3] it was 3560 MFI; in assay [4], 1010 MFI; in assay [8] it was 263 MFI. The same molecule came in with an EC50, DDR1 phospho-specific ELISA (T47D) in [5] of 0.55 nM. The Maximal inhibition, DDR1 phospho-specific ELISA (T47D) in assay [5] was 100%. This molecule also yielded an NPI of cluster formation at 66 nM (A431 cells) in assay [5] of 100%. Also, the Kd in assay [6] amounted to 0.302 nM; in assay [7] it was 0.397 nM. The binding result with mouse ECD-DDR1-Fc is given as “no binding”.

B2: AB2034 (antibody, V domains shown)
VH: QVQLKESGPGLVAPSQSLSITCTVSGFSLTSYHIHWVRQPPGKGLEWLVVIWSDGSTTYNSALKSRLSISKDNSKSQVFLKMNSLQTDDTAIYYCARTGNFYAMDYWGQGTSVTVSS
VL: SIVMTQTPKFLLVSAGDRVTITCKASQSVSNDVVWYQQKPGQSPKLLIYYASSRYTGVPDRFTGSGYGTDFTFTISTVQAEDLAVYFCQQDYSSPYTFGGGTKLEIR
notes: mouse hybridoma mAb
The molecule B2 had a Mean EC50, DDR1 Tyr513 phosphorylation assay (U20S) in assay [1] of 5.2 nM. The MFI worked out at 11400 MFI in assay [2], 4370 MFI in assay [3], 1060 MFI in assay [4] and 175 MFI in assay [8]. The molecule also registered an EC50, DDR1 phospho-specific ELISA (T47D) in assay [5] of 0.63 nM. For the same molecule, the EC50, cluster formation assay (A431 cells) in assay [5] was 7.87 nM. Moreover, the Maximal inhibition, DDR1 phospho-specific ELISA (T47D) in assay [5] was found to be 100%. In addition, the NPI of cluster formation at 66 nM (A431 cells) in assay [5] was 119%. Also, the figures for the Kd in [6] and in assay [7] were 0.256 nM and 0.311 nM, respectively. The binding result with mouse ECD-DDR1-Fc was “no binding”.

B3: AB2021 (antibody, V domains shown)
VH: EVKLVESGGGLVKPGGSLNLSCAASGFTFSNYAMSWSRQTPEKRLEWVASISSGGNTYYPDSVRGRFTISRDNARNILYLQMSSLRSEDTAMYYCAREPGTYNWYFDVWGAGTTVTVSS
VL: DIVMTQSQKFMSTSVGDRVSVTCKASQNVGTNVAWYQQKPGQSLKALIYSASYRFSGVPDRFTGSGYGTDFTLTISNVQSEDLAEYFCQQCNSYPLTFGAGTKLELKR
notes: mouse hybridoma mAb
In assay [1], B3 registered a Mean EC50, DDR1 Tyr513 phosphorylation assay (U20S) of 7.71 nM. Moreover, the MFI in assay [2] came to 15800 MFI; in assay [3], 5010 MFI; in [4], 1390 MFI; in assay [8], 92 MFI. The EC50, DDR1 phospho-specific ELISA (T47D) in assay [5] is 2.26 nM. Besides, the EC50, cluster formation assay (A431 cells) in assay [5] worked out at 18.5 nM. For the same molecule, in assay [5], the Maximal inhibition, DDR1 phospho-specific ELISA (T47D) is 100%. The molecule further had an NPI of cluster formation at 66 nM (A431 cells) in assay [5] of 106%. The values for the Kd in [6] and in assay [7] were 0.252 nM and 0.153 nM, respectively. In addition, the binding result in the assay with mouse ECD-DDR1-Fc was “no binding”.

B4: AB2065 (antibody, V domains shown)
VH: EVMLVESGGGLVKPGGSLKLSCAASGFTFSNYAMSWVRQTPEKRLEWVAKTSSGDTYTYYPDSVKGRFTISRDNAKNTLYLQMTSLRSEDTAIYYCARQDYYGITPWFFDVWGAGTTVTVSS
VL: ENVLTQSPAIMSASPGEKVTMTCRASSSVSSIYLHWYQQKSGASPKLWIYSTSNLASGVPARFSGSGSGTSYSLTITSVEAEDAATYYCQQYSGYPLITFGAGTKLELKR
notes: mouse hybridoma mAb
On to B4, for which the Mean EC50, DDR1 Tyr513 phosphorylation assay (U20S) in assay [1] amounted to 25.7 nM. For the same molecule, the MFI in assay [2] is 3560 MFI; in [3], 4400 MFI; in assay [4] it was 2480 MFI; in assay [8], 353 MFI. This molecule also showed an EC50, DDR1 phospho-specific ELISA (T47D) in assay [9] of 0.35 nM. In assay [9], this molecule came in with a Maximal inhibition, DDR1 phospho-specific ELISA (T47D) of 100%. Besides, in assay [9], the NPI of cluster formation at 66 nM (A431 cells) was determined as 15.8%. The Kd was determined as 0.234 nM in assay [6] and 0.197 nM in assay [7]. In addition, in the assay with mouse ECD-DDR1-Fc, the binding result is listed as “no binding”.

B5: AB2079 (antibody, V domains shown)
VH: EVMLVESGGGLVKPGGSLKLSCAASGFTFSNYAMSWVRQTPEKRLEWVAKTSSGDTYTYYPDSVKGRFTISRDNAKNTLYLQMTSLRSEDTAIYYCARQDYYGITPWFFDVWGAGTTVTVSS
VL: ENVLTQSPAIMSASPGEKVTMTCRASSSVSSIYLHWYQQKSGASPKLWIYSTSNLASGVPARFSGSGSGTSYSLTITSVEAEDAATYYCQQYSGYPLITFGAGTKLELKR
notes: mouse hybridoma mAb
Take B5: the MFI stood at 14300 MFI in assay [2]; 14300 MFI in assay [10]; 6130 MFI in assay [3]; 1730 MFI in [4]; 326 MFI in [8]. The same molecule yielded an EC50, DDR1 phospho-specific ELISA (T47D) in assay [9] of 0.13 nM. The NPI of cluster formation at 66 nM (A431 cells) in assay [9] came to 0.5%. Besides, the results for the Kd in assay [6], in [7] and in [11] were 0.0883 nM, 0.07 nM and 0.088 nM, respectively. In addition, the binding result with mouse ECD-DDR1-Fc is recorded as “no binding”.
